Assay results: patent CN115710309A (INST PASTEUR SHANGHAI CAS, dated 2023)

B1: 单抗8D3 (antibody, V domains shown)
VH: EVQLQQSGPELVKPGASVKISCKTSGYTFTEYTMYWVKQSHGKSLEWIGGINPNIGDTSYNQNFKGKATLTVDRSSSTAYMELRSLTSEDSAVYYCARDGYPYYYALDHWGQGTSVTVSS
VL: DIVMTQSQKFMSTSVGDRVSVTCKASQNVGTNVAWYQQKPGQSPKALIYSTSYRYSGVPDRFTGSGSGTDFTLTISNVQSEDLAEYFCQQYNSYPYTFGGGTKLEIKR
B2: 单抗3A2 (antibody, V domains shown)
VH: QVTLKESGPGILQPSQTLSLTCSFSGFSLSTSGMGVSWIRQPSGKGLEWLAHIYWDDDKRYNPSLKSRLTISKDTSSSQVFLKITSVDTVDTATYYCARRGPLITTDGTFDVWGAGTTVTVSS
VL: DIVMTQSRKFMSTSVGDRVSITCKASQDVGTSVAWYQQKPGQSPKLLIYWASTRHTGVPDRFTGSGSGTDFTLTINSVQSEDLADYFCQQYSSYPYTFGGGTKLEMK
B3: 单抗2G3 (antibody)
heavy: QVQLQQPGAELVKPGASVKMSCKASGYTFTTYTIHWLRQTPGQGLEWIGAIYPGIGDTSYNQSFKGKATLTADKSSSTAYMQLSSLTSEDSAVYYCARDGNYAPFTYWGQGTLVTVSAAKTTPPSVYPLAPGSAAQTNSMVTLGCLVKGYFPEPVTVTWNSGSLSSGVHTFPAVLQSDLYTLSSSVTVPSSTWPSETVTCNVAHPASSTKVDKKIVPRDCGCKPCICTVPEVSSVFIFPPKPKDVLTITLTPKVTCVVVDISKDDPEVQFSWFVDDVEVHTAQTQPREEQFNSTFRSVSELPIMHQDWLNGKEFKCRVNSAAFPAPIEKTISKTKGRPKAPQVYTIPPPKEQMAKDKVSLTCMITDFFPEDITVEWQWNGQPAENYKNTQPIMDTDGSYFVYSKLNVQKSNWEAGNTFTCSVLHEGLHNHHTEKSLSHSPGK
light: DIVMSQSPSSLAVSVGEKVTMSCKSSQSLLYSNNQKNYLAWYQQKPGQSPKLLIYWTSTRESGVPDRFTGSGSGTDFTLTINSVKAEDLAVYYCQQYYRYPLTVGAGTKLELKRADAAPTVSIFPPSSEQLTSGGASVVCFLNNFYPKDINVKWKIDGSERQNGVLNSWTDQDSKDSTYSMSSTLTLTKDEYERHNSYTCEATHKTSTSPIVKSFNRNEC

Tests used:
Experiment in all cases: cell-based or functional assay
SARS-CoV-2 S蛋白 (野生型假病毒) [1] = target: SARS-CoV-2 S蛋白 (野生型假病毒) (SARS-CoV-2, UniProt P0DTC2 14-1273)
[2] = target: SARS-CoV-2活病毒nCoV-SH01株的S蛋白 (SARS-CoV-2, UniProt P0DTC2 14-1273)
SARS-CoV-2 S蛋白 (野生型假病毒) [3] = target: SARS-CoV-2 S蛋白 (野生型假病毒) (SARS-CoV-2, UniProt P0DTC2 14-1273); remark: listed apart in the source

| Binder | 假病毒中和试验 半数抑制浓度(IC50) (SARS-CoV-2 S蛋白 (野生型假病毒) [1]) | 活病毒中和 IC50 [2] | 假病毒中和试验 半数抑制浓度(IC50) (SARS-CoV-2 S蛋白 (野生型假病毒) [3]) |
| --- | --- | --- | --- |
| B1 | 0.007 µg/mL | 0.071 µg/mL |  |
| B2 |  |  | 0.049 µg/mL |
| B3 | 0.007 µg/mL | 0.032 µg/mL |  |
